Test results: US20110105394A1 (Novo Nordisk, published 2011)
*1 amine or outer side, *2 acyl side, *3 side chain or, on linkers, in order; H or OH if unused. Bridges are numbered along the chain shown (N, C = ends). The star is where a group is joined. C20 diacid = O=C(O)CCCCCCCCCCCCCCCCCCC(=O)*; γGlu = O=C(O)[C@H](CCC(=O)[*:2])N[*:1]

T1: Amylin 3(a) receptor (human calcitonin receptor (CTa) with RAMP-3) (human) (UniProt P30988)
T1 sequence (looked up) 1: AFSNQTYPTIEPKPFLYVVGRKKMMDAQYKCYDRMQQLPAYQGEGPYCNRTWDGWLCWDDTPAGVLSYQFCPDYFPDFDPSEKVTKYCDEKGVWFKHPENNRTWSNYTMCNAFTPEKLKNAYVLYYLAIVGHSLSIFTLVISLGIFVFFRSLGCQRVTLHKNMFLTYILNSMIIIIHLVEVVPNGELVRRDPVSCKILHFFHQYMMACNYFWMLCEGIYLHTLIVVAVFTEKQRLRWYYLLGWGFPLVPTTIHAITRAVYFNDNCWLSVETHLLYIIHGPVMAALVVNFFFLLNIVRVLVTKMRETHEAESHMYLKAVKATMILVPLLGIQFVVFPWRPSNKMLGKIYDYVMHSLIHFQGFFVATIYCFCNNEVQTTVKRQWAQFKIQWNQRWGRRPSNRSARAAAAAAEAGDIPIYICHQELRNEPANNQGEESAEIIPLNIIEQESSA
T1 sequence (looked up) 2: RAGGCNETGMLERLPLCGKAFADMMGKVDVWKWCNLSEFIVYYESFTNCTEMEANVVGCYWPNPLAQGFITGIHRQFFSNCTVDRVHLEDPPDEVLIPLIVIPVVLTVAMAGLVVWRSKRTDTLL

B1: N-alpha-[(S)-4-Carboxy-4-(19-carboxynonadecanoylamino)butyryl]-Glu-His-Arg-[His1,His17]-pramlintide (peptide)
peptide: {C20 diacid-γGlu}-EHRHCNTATCATQRLANFLHHSSNNFGPILPPTNVGSNTY-NH2
modifications: disulfide 5-10
SMILES: CC[C@H](C)[C@H](NC(=O)[C@@H]1CCCN1C(=O)CNC(=O)[C@H](Cc1ccccc1)NC(=O)[C@H](CC(N)=O)NC(=O)[C@H](CC(N)=O)NC(=O)[C@H](CO)NC(=O)[C@H](CO)NC(=O)[C@H](Cc1c[nH]cn1)NC(=O)[C@H](Cc1c[nH]cn1)NC(=O)[C@H](CC(C)C)NC(=O)[C@H](Cc1ccccc1)NC(=O)[C@H](CC(N)=O)NC(=O)[C@H](C)NC(=O)[C@H](CC(C)C)NC(=O)[C@H](CCCNC(=N)N)NC(=O)[C@H](CCC(N)=O)NC(=O)[C@@H](NC(=O)[C@H](C)NC(=O)[C@@H]1CSSC[C@H](NC(=O)[C@H](Cc2c[nH]cn2)NC(=O)[C@H](CCCNC(=N)N)NC(=O)[C@H](Cc2c[nH]cn2)NC(=O)[C@H](CCC(=O)O)NC(=O)CC[C@H](NC(=O)CCCCCCCCCCCCCCCCCCC(=O)O)C(=O)O)C(=O)N[C@@H](CC(N)=O)C(=O)N[C@@H]([C@@H](C)O)C(=O)N[C@@H](C)C(=O)N[C@@H]([C@@H](C)O)C(=O)N1)[C@@H](C)O)C(=O)N[C@@H](CC(C)C)C(=O)N1CCC[C@H]1C(=O)N1CCC[C@H]1C(=O)N[C@H](C(=O)N[C@@H](CC(N)=O)C(=O)N[C@H](C(=O)NCC(=O)N[C@@H](CO)C(=O)N[C@@H](CC(N)=O)C(=O)N[C@H](C(=O)N[C@@H](Cc1ccc(O)cc1)C(N)=O)[C@@H](C)O)C(C)C)[C@@H](C)O
B2: N-alpha-[(S)-4-Carboxy-4-(19-carboxynonadecanoylamino)butyryl]-GluHis-His-[Arg1,His17,Gln21]-pramlintide (peptide)
peptide: {C20 diacid-γGlu}-EHHRCNTATCATQRLANFLHHSSQNFGPILPPTNVGSNTY-NH2
modifications: disulfide 5-10
SMILES: CC[C@H](C)[C@H](NC(=O)[C@@H]1CCCN1C(=O)CNC(=O)[C@H](Cc1ccccc1)NC(=O)[C@H](CC(N)=O)NC(=O)[C@H](CCC(N)=O)NC(=O)[C@H](CO)NC(=O)[C@H](CO)NC(=O)[C@H](Cc1c[nH]cn1)NC(=O)[C@H](Cc1c[nH]cn1)NC(=O)[C@H](CC(C)C)NC(=O)[C@H](Cc1ccccc1)NC(=O)[C@H](CC(N)=O)NC(=O)[C@H](C)NC(=O)[C@H](CC(C)C)NC(=O)[C@H](CCCNC(=N)N)NC(=O)[C@H](CCC(N)=O)NC(=O)[C@@H](NC(=O)[C@H](C)NC(=O)[C@@H]1CSSC[C@H](NC(=O)[C@H](CCCNC(=N)N)NC(=O)[C@H](Cc2c[nH]cn2)NC(=O)[C@H](Cc2c[nH]cn2)NC(=O)[C@H](CCC(=O)O)NC(=O)CC[C@H](NC(=O)CCCCCCCCCCCCCCCCCCC(=O)O)C(=O)O)C(=O)N[C@@H](CC(N)=O)C(=O)N[C@@H]([C@@H](C)O)C(=O)N[C@@H](C)C(=O)N[C@@H]([C@@H](C)O)C(=O)N1)[C@@H](C)O)C(=O)N[C@@H](CC(C)C)C(=O)N1CCC[C@H]1C(=O)N1CCC[C@H]1C(=O)N[C@H](C(=O)N[C@@H](CC(N)=O)C(=O)N[C@H](C(=O)NCC(=O)N[C@@H](CO)C(=O)N[C@@H](CC(N)=O)C(=O)N[C@H](C(=O)N[C@@H](Cc1ccc(O)cc1)C(N)=O)[C@@H](C)O)C(C)C)[C@@H](C)O
B3: N-alpha-[(S)-4-Carboxy-4-(19-carboxynonadecanoylamino)butyryl]-Glu-His-His-[Arg1,His17]-pramlintide (peptide)
peptide: {C20 diacid-γGlu}-EHHRCNTATCATQRLANFLHHSSNNFGPILPPTNVGSNTY-NH2
modifications: disulfide 5-10
SMILES: CC[C@H](C)[C@H](NC(=O)[C@@H]1CCCN1C(=O)CNC(=O)[C@H](Cc1ccccc1)NC(=O)[C@H](CC(N)=O)NC(=O)[C@H](CC(N)=O)NC(=O)[C@H](CO)NC(=O)[C@H](CO)NC(=O)[C@H](Cc1c[nH]cn1)NC(=O)[C@H](Cc1c[nH]cn1)NC(=O)[C@H](CC(C)C)NC(=O)[C@H](Cc1ccccc1)NC(=O)[C@H](CC(N)=O)NC(=O)[C@H](C)NC(=O)[C@H](CC(C)C)NC(=O)[C@H](CCCNC(=N)N)NC(=O)[C@H](CCC(N)=O)NC(=O)[C@@H](NC(=O)[C@H](C)NC(=O)[C@@H]1CSSC[C@H](NC(=O)[C@H](CCCNC(=N)N)NC(=O)[C@H](Cc2c[nH]cn2)NC(=O)[C@H](Cc2c[nH]cn2)NC(=O)[C@H](CCC(=O)O)NC(=O)CC[C@H](NC(=O)CCCCCCCCCCCCCCCCCCC(=O)O)C(=O)O)C(=O)N[C@@H](CC(N)=O)C(=O)N[C@@H]([C@@H](C)O)C(=O)N[C@@H](C)C(=O)N[C@@H]([C@@H](C)O)C(=O)N1)[C@@H](C)O)C(=O)N[C@@H](CC(C)C)C(=O)N1CCC[C@H]1C(=O)N1CCC[C@H]1C(=O)N[C@H](C(=O)N[C@@H](CC(N)=O)C(=O)N[C@H](C(=O)NCC(=O)N[C@@H](CO)C(=O)N[C@@H](CC(N)=O)C(=O)N[C@H](C(=O)N[C@@H](Cc1ccc(O)cc1)C(N)=O)[C@@H](C)O)C(C)C)[C@@H](C)O
B4: N-alpha-[(S)-4-Carboxy-4-(19-carboxynonadecanoylamino)butyryl]-Glu-His-His-[Arg1,Arg17,Gln21]-pramlintide (peptide)
peptide: {C20 diacid-γGlu}-EHHRCNTATCATQRLANFLRHSSQNFGPILPPTNVGSNTY-NH2
modifications: disulfide 5-10
SMILES: CC[C@H](C)[C@H](NC(=O)[C@@H]1CCCN1C(=O)CNC(=O)[C@H](Cc1ccccc1)NC(=O)[C@H](CC(N)=O)NC(=O)[C@H](CCC(N)=O)NC(=O)[C@H](CO)NC(=O)[C@H](CO)NC(=O)[C@H](Cc1c[nH]cn1)NC(=O)[C@H](CCCNC(=N)N)NC(=O)[C@H](CC(C)C)NC(=O)[C@H](Cc1ccccc1)NC(=O)[C@H](CC(N)=O)NC(=O)[C@H](C)NC(=O)[C@H](CC(C)C)NC(=O)[C@H](CCCNC(=N)N)NC(=O)[C@H](CCC(N)=O)NC(=O)[C@@H](NC(=O)[C@H](C)NC(=O)[C@@H]1CSSC[C@H](NC(=O)[C@H](CCCNC(=N)N)NC(=O)[C@H](Cc2c[nH]cn2)NC(=O)[C@H](Cc2c[nH]cn2)NC(=O)[C@H](CCC(=O)O)NC(=O)CC[C@H](NC(=O)CCCCCCCCCCCCCCCCCCC(=O)O)C(=O)O)C(=O)N[C@@H](CC(N)=O)C(=O)N[C@@H]([C@@H](C)O)C(=O)N[C@@H](C)C(=O)N[C@@H]([C@@H](C)O)C(=O)N1)[C@@H](C)O)C(=O)N[C@@H](CC(C)C)C(=O)N1CCC[C@H]1C(=O)N1CCC[C@H]1C(=O)N[C@H](C(=O)N[C@@H](CC(N)=O)C(=O)N[C@H](C(=O)NCC(=O)N[C@@H](CO)C(=O)N[C@@H](CC(N)=O)C(=O)N[C@H](C(=O)N[C@@H](Cc1ccc(O)cc1)C(N)=O)[C@@H](C)O)C(C)C)[C@@H](C)O
B5: N-alpha-[(S)-4-Carboxy-4-(19-carboxynonadecanoylamino)butyryl]-Glu-His-Arg-[Arg1,His17]-pramlintide (peptide)
peptide: {C20 diacid-γGlu}-EHRRCNTATCATQRLANFLHHSSNNFGPILPPTNVGSNTY-NH2
modifications: disulfide 5-10
SMILES: CC[C@H](C)[C@H](NC(=O)[C@@H]1CCCN1C(=O)CNC(=O)[C@H](Cc1ccccc1)NC(=O)[C@H](CC(N)=O)NC(=O)[C@H](CC(N)=O)NC(=O)[C@H](CO)NC(=O)[C@H](CO)NC(=O)[C@H](Cc1c[nH]cn1)NC(=O)[C@H](Cc1c[nH]cn1)NC(=O)[C@H](CC(C)C)NC(=O)[C@H](Cc1ccccc1)NC(=O)[C@H](CC(N)=O)NC(=O)[C@H](C)NC(=O)[C@H](CC(C)C)NC(=O)[C@H](CCCNC(=N)N)NC(=O)[C@H](CCC(N)=O)NC(=O)[C@@H](NC(=O)[C@H](C)NC(=O)[C@@H]1CSSC[C@H](NC(=O)[C@H](CCCNC(=N)N)NC(=O)[C@H](CCCNC(=N)N)NC(=O)[C@H](Cc2c[nH]cn2)NC(=O)[C@H](CCC(=O)O)NC(=O)CC[C@H](NC(=O)CCCCCCCCCCCCCCCCCCC(=O)O)C(=O)O)C(=O)N[C@@H](CC(N)=O)C(=O)N[C@@H]([C@@H](C)O)C(=O)N[C@@H](C)C(=O)N[C@@H]([C@@H](C)O)C(=O)N1)[C@@H](C)O)C(=O)N[C@@H](CC(C)C)C(=O)N1CCC[C@H]1C(=O)N1CCC[C@H]1C(=O)N[C@H](C(=O)N[C@@H](CC(N)=O)C(=O)N[C@H](C(=O)NCC(=O)N[C@@H](CO)C(=O)N[C@@H](CC(N)=O)C(=O)N[C@H](C(=O)N[C@@H](Cc1ccc(O)cc1)C(N)=O)[C@@H](C)O)C(C)C)[C@@H](C)O
B6: N-alpha-[(S)-4-Carboxy-4-(19-carboxynonadecanoylamino)butyryl]-Glu-His-His-[Arg1,Arg17]-pramlintide (peptide)
peptide: {C20 diacid-γGlu}-EHHRCNTATCATQRLANFLRHSSNNFGPILPPTNVGSNTY-NH2
modifications: disulfide 5-10
SMILES: CC[C@H](C)[C@H](NC(=O)[C@@H]1CCCN1C(=O)CNC(=O)[C@H](Cc1ccccc1)NC(=O)[C@H](CC(N)=O)NC(=O)[C@H](CC(N)=O)NC(=O)[C@H](CO)NC(=O)[C@H](CO)NC(=O)[C@H](Cc1c[nH]cn1)NC(=O)[C@H](CCCNC(=N)N)NC(=O)[C@H](CC(C)C)NC(=O)[C@H](Cc1ccccc1)NC(=O)[C@H](CC(N)=O)NC(=O)[C@H](C)NC(=O)[C@H](CC(C)C)NC(=O)[C@H](CCCNC(=N)N)NC(=O)[C@H](CCC(N)=O)NC(=O)[C@@H](NC(=O)[C@H](C)NC(=O)[C@@H]1CSSC[C@H](NC(=O)[C@H](CCCNC(=N)N)NC(=O)[C@H](Cc2c[nH]cn2)NC(=O)[C@H](Cc2c[nH]cn2)NC(=O)[C@H](CCC(=O)O)NC(=O)CC[C@H](NC(=O)CCCCCCCCCCCCCCCCCCC(=O)O)C(=O)O)C(=O)N[C@@H](CC(N)=O)C(=O)N[C@@H]([C@@H](C)O)C(=O)N[C@@H](C)C(=O)N[C@@H]([C@@H](C)O)C(=O)N1)[C@@H](C)O)C(=O)N[C@@H](CC(C)C)C(=O)N1CCC[C@H]1C(=O)N1CCC[C@H]1C(=O)N[C@H](C(=O)N[C@@H](CC(N)=O)C(=O)N[C@H](C(=O)NCC(=O)N[C@@H](CO)C(=O)N[C@@H](CC(N)=O)C(=O)N[C@H](C(=O)N[C@@H](Cc1ccc(O)cc1)C(N)=O)[C@@H](C)O)C(C)C)[C@@H](C)O

molecular target: T1, Amylin 3(a) receptor (human calcitonin receptor (CTa) with RAMP-3) (human); test: cell-based or functional assay

| Potency Luciferase [nM] | Binder |
| --- | --- |
| 0.1 | B1 |
| 0.1 | B2 |
| 0.1 | B3 |
| 0.1 | B4 |
| 0.2 | B5 |
| 0.2 | B6 |
